Data: the supplement of paper PMC10567573

B1: FBF1 (parent)
chain: FGDSPKAEKRQIGDQEGPRPARST
B2: APBB1IP (parent)
chain: SQVSMWDQRWQDHQPLLPITDVP

Variants of: B1
Experiment: protein stability index of a GFP-peptide fusion (GPS, HEK-293T) (PSI 1-6); higher = more stable
Settings: c terminus: a fixed tail appended
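Also: lentivirally expressed fusions sorted by FACS into six bins by GFP to DsRed ratio, PSI derived from sequencing read proportions per bin multiplied by bin number.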

Row | Variant | protein stability index
1 | P5D | 5.72
2 | P5C | 4.63
3 | P5N | 5.53
4 | P5M | 4.88
5 | P5T | 5.19
6 | P5E | 5.24
7 | P5R | 4.75
8 | P5H | 5
9 | P5W | 1.37
10 | P5L | 4.58
11 | P5V | 4.13
12 | P5Y | 4.86
13 | P5I | 4.89
14 | P5G | 4.79
15 | P5A | 4.85
16 | P5Q | 4.55
17 | P5K | 4.43
18 | P5F | 3.64
19 | P5S | 4.84
20 | E16L | 4.66
21 | E16T | 5.03
22 | E16N | 4.98
23 | E16K | 4.81
24 | E16Y | 4.14
25 | E16S | 5.27
26 | E16A | 4.55

Row | Variant | protein stability index
27 | E16F | 4.55
28 | E16C | 4.79
29 | E16G | 3.41
30 | E16P | 5.09
31 | E16Q | 5.19
32 | E16H | 4.21
33 | E16I | 4.83
34 | E16V | 4.99
35 | E16D | 5.75
36 | E16M | 4.57
37 | E16R | 5.02
38 | E16W | 3.48
39 | D14W | 4
40 | D14M | 4.1
41 | D14L | 4.68
42 | D14K | 4.5
43 | D14F | 4.65
44 | D14T | 5
45 | D14Y | 4.54
46 | D14R | 4.82
47 | D14H | 5
48 | D14G | 4.71
49 | D14I | 4.38
50 | D14S | 4.84
51 | D14C | 4.7
52 | D14E | 5.03

Row | Variant | protein stability index
53 | D14V | 4.72
54 | D14P | 5.09
55 | D14N | 5.15
56 | D14Q | 4.42
57 | D14A | 4.87
58 | G13S | 4.82
59 | G13I | 4.44
60 | G13Q | 5.45
61 | G13E | 5.34
62 | G13L | 4.17
63 | G13F | 4.71
64 | G13W | 2.74
65 | G13T | 5.03
66 | G13H | 4.69
67 | G13C | 5.04
68 | G13V | 4.54
69 | G13K | 5.24
70 | G13P | 5.16
71 | G13D | 5.53
72 | G13M | 4.24
73 | G13N | 5.01
74 | G13R | 5.09
75 | G13Y | 4.86
76 | G13A | 4.98
77 | S4F | 4.75
78 | S4T | 4.16

Row | Variant | protein stability index
79 | S4R | 4.88
80 | S4V | 5.61
81 | S4K | 4.79
82 | S4Q | 4.75
83 | S4A | 4.3
84 | S4N | 4.79
85 | S4H | 5.43
86 | S4G | 4.96
87 | S4D | 5.43
88 | S4I | 5.33
89 | S4C | 5.01
90 | S4L | 5.27
91 | S4W | 2.73
92 | S4E | 5.2
93 | S4Y | 4.31
94 | S4P | 5.05
95 | S4M | 4.68
96 | K9Y | 4.74
97 | K9N | 5.93
98 | K9R | 5.46
99 | K9D | 5.52
100 | K9I | 5.23
101 | K9T | 5.17
102 | K9H | 5.22
103 | K9G | 5.2
104 | K9F | 4.43

Row | Variant | protein stability index
105 | K9P | 5.54
106 | K9Q | 5.53
107 | K9S | 5.47
108 | K9V | 4.89
109 | K9A | 4.97
110 | K9E | 5.1
111 | K6P | 4.89
112 | K6S | 5.64
113 | K6E | 5.25
114 | K6L | 4.84
115 | K6T | 5.56
116 | K6Q | 3.71
117 | K6W | 4.57
118 | K6N | 5.08
119 | K6C | 5.52
120 | K6F | 4.06
121 | K6A | 5.55
122 | K6D | 5.22
123 | K6Y | 4.8
124 | K6V | 4.24
125 | K6I | 4.78
126 | E8L | 3.87
127 | E8Y | 3.39
128 | E8F | 3.27
129 | E8D | 5.48
130 | E8T | 3.77

Row | Variant | protein stability index
131 | E8R | 4.43
132 | E8S | 4.58
133 | E8A | 4.84
134 | E8I | 4.26
135 | E8C | 4.11
136 | E8Q | 4.48
137 | E8P | 4.97
138 | E8N | 4.53
139 | G2K | 4.72
140 | G2C | 4.19
141 | G2V | 1.77
142 | G2D | 4.94
143 | G2R | 5.98
144 | G2P | 5.29
145 | G2E | 5.83
146 | G2T | 4.82
147 | G2F | 4.63
148 | G2W | 5.31
149 | G2M | 4.96
150 | G2H | 4.58
151 | G2S | 4.96
152 | G2I | 3.83
153 | G2A | 4.53
154 | G2Y | 5.18
155 | G2N | 4.16
156 | G2Q | 4.99

Row | Variant | protein stability index
157 | Q11S | 5.29
158 | Q11K | 4.86
159 | Q11A | 5.6
160 | Q11Y | 4.45
161 | Q11T | 5
162 | Q11W | 3.76
163 | Q11C | 5.06
164 | Q11F | 3.59
165 | Q11N | 5.38
166 | Q11L | 4.7
167 | Q11M | 5.22
168 | Q11V | 5.08
169 | Q11P | 5.25
170 | Q11I | 4.61
171 | Q11H | 5.16
172 | Q11G | 5.34
173 | Q11D | 5.29
174 | Q11E | 5.33
175 | A7G | 4.89
176 | A7L | 5.32
177 | A7E | 5.89
178 | A7R | 5.15
179 | A7S | 5.09
180 | A7V | 3.47
181 | A7D | 5.53
182 | A7Y | 4

Row | Variant | protein stability index
183 | A7Q | 5.1
184 | A7N | 5.24
185 | A7K | 5.31
186 | A7T | 4.44
187 | A7I | 5.03
188 | A7H | 4.03
189 | A7F | 3.85
190 | I12S | 5.47
191 | I12V | 5.4
192 | I12Y | 4.24
193 | I12T | 4.32
194 | I12E | 5.27
195 | I12F | 4.47
196 | I12D | 4.89
197 | I12P | 5.12
198 | I12M | 5.04
199 | I12Q | 5.5
200 | I12N | 5.5
201 | I12A | 4.73
202 | I12L | 4.78
203 | I12C | 2.83
204 | I12R | 5.17
205 | I12G | 5.03
206 | F1H | 5.52
207 | F1Y | 5.42
208 | F1N | 5.54

Row | Variant | protein stability index
209 | F1M | 5.85
210 | F1C | 4.95
211 | F1T | 5.76
212 | F1S | 5.51
213 | F1K | 5.79
214 | F1G | 5.72
215 | F1L | 5.36
216 | F1D | 5.81
217 | F1A | 5.87
218 | F1W | 5.69
219 | F1E | 5.52
220 | F1P | 5.58
221 | F1I | 5.41
222 | F1R | 5.67
223 | R10S | 5.44
224 | R10N | 5.42
225 | R10A | 5.42
226 | R10Q | 4.86
227 | R10Y | 4.97
228 | R10K | 4.76
229 | R10M | 5.06
230 | R10L | 4.59
231 | R10E | 5.63
232 | R10I | 5.19
233 | R10D | 5.29
234 | R10C | 5.02

Row | Variant | protein stability index
235 | R10H | 4.63
236 | R10W | 3.46
237 | R10T | 5.58
238 | G17E | 5.34
239 | G17K | 5.02
240 | G17D | 5.24
241 | G17F | 4.57
242 | G17L | 4.77
243 | G17I | 4.34
244 | G17C | 4.94
245 | G17H | 4.83
246 | G17A | 5.52
247 | Q15W | 4.25
248 | Q15S | 5.72
249 | Q15R | 4.28
250 | Q15F | 4.32
251 | Q15Y | 4.53
252 | Q15I | 4.65
253 | Q15V | 4.81
254 | Q15M | 5.03
255 | Q15P | 5.38
256 | Q15N | 4.69
257 | Q15T | 4.96
258 | Q15D | 5.65
259 | Q15H | 3.53
260 | Q15C | 4.23

Row | Variant | protein stability index
261 | D3F | 5.01
262 | D3T | 4.99
263 | D3V | 5.55
264 | D3I | 5.04
265 | D3S | 4.89
266 | D3A | 4.79
267 | D3L | 5.13
268 | D3H | 4.49
269 | D3C | 4.62
270 | D3R | 4.97
271 | D3W | 3.87
272 | D3N | 5.06
273 | D3E | 5.41
274 | D3P | 5.14
275 | D3Y | 4.67
276 | D3Q | 5.25
277 | D3K | 4.17
278 | D3M | 4.57

Variants of: B2
Experiment: as above
Settings: c terminus: native

Row | Variant | protein stability index
279 | P23L | 2.06
280 | P23R | 4.33
281 | P23I | 2.48
282 | P23Q | 1.61
283 | P23E | 2.9
284 | P23N | 1.81
285 | P23S | 3.01
286 | P23Y | 2.74
287 | P23M | 1.19
288 | P23D | 3.6
289 | P23W | 2.17
290 | P23T | 2.01
291 | P23H | 2.58
292 | P23A | 2.56
293 | P23C | 2.85
294 | P23K | 2.03
295 | P23G | 1.91
296 | P23F | 2.21
297 | T20S | 3.27

Row | Variant | protein stability index
298 | T20Y | 1.88
299 | T20V | 1.65
300 | T20R | 2.32
301 | V22M | 2.53
302 | V22W | 2.19
303 | V22K | 3.37
304 | V22F | 2.72
305 | V22D | 3.85
306 | V22G | 2.42
307 | V22T | 2.65
308 | V22N | 2.69
309 | V22C | 2.06
310 | V22E | 3.45
311 | V22R | 2.99
312 | V22L | 2.43
313 | V22Y | 1.91
314 | V22P | 2.83
315 | V22H | 2.75
316 | V22Q | 2.98

Row | Variant | protein stability index
317 | V22A | 2.31
318 | V22S | 2.8
319 | V22I | 2.19
320 | D21S | 1.6
321 | D21C | 5.18
322 | D21N | 1.7
323 | D21T | 2.88
324 | D21W | 1.63
325 | D21H | 1.75
326 | D21M | 1.62
327 | D21K | 2.44
328 | D21A | 2.56
329 | D21G | 1.94
330 | D21Y | 1.65
331 | D21Q | 1.53
332 | D21F | 1.44
333 | D21P | 2.07
334 | D21E | 1.77
